Data published in patent US20260167699A1 (Chugai, published 2026).

T1: FcγRIIb extracellular domain with C-terminal His tag (human, UniProt P31994 43-217)
T1 construct: extracellular domain; also called 2b; CD32
T1 sequence: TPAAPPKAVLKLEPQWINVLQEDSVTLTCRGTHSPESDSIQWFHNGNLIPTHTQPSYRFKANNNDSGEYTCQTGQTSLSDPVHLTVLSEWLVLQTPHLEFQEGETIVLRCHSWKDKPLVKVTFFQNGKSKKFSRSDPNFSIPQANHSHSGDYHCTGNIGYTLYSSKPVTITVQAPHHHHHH

T2: FcγRIIa(H) extracellular domain with C-terminal His tag (human, UniProt P12318 34-217)
T2 construct: extracellular domain; H131 allotype; also called 2aH; CD32
T2 sequence: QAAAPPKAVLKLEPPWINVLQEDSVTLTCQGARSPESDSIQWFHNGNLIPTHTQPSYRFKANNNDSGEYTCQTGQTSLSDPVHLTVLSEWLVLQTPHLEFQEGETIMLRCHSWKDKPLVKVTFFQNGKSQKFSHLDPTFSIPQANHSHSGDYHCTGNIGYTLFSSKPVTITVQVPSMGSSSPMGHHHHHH

T3: FcγRIIa(R) extracellular domain with C-terminal His tag (human, UniProt P12318 34-217)
T3 construct: extracellular domain; R131 allotype; also called 2aR; CD32
T3 sequence: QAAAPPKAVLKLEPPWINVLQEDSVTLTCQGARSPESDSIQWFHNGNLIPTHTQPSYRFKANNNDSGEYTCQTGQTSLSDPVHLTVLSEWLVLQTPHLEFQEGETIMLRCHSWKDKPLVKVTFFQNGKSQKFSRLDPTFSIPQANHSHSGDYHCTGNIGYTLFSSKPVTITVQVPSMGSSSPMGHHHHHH


Experiments:
Experiment in all cases: SPR; % of GpH7-A5/GpH7-B3/GpL16-k0
[1] = biological target: T1, FcγRIIb extracellular domain with …
[2] = biological target: T2, FcγRIIa(H) extracellular domain with …
[3] = biological target: T4, FcγRIa extracellular domain with C-terminal His tag (human, UniProt P12314 16-292)
T4 construct: extracellular domain; also called 1a; CD64

[4] = biological target: T3, FcγRIIa(R) extracellular domain with …
[5] = biological target: T5, FcγRIIIa extracellular domain with C-terminal His tag (human, UniProt P08637 17-208)
T5 construct: extracellular domain; also called 3a; CD16
T5 sequence (P08637 other isoform, or with tags, fused parts or gaps): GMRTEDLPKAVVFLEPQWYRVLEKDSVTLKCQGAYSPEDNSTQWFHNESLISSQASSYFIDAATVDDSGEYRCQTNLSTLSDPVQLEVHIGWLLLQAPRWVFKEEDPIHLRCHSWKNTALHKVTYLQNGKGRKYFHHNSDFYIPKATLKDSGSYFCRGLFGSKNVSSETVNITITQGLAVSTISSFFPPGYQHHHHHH

T4 sequence (P12314 other isoform, or with tags, fused parts or gaps): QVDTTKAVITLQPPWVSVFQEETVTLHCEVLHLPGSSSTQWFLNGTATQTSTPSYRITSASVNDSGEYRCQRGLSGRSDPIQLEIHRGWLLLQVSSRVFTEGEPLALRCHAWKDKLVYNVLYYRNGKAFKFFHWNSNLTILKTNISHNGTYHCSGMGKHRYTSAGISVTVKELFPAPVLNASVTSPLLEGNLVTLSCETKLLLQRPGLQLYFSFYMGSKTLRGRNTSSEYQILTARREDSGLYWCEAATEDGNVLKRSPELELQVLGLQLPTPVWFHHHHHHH

Row | Binder | He/Con 2b [1] [%] | He/Con 2aH [2] [%] | He/Con 1a [3] [%] | He/Con 2aR [4] [%] | He/Con 3a [5] [%]
1 | GpH7-A5/GpH7-B3 variant T335_02A/GpL16-k0 (antibody, human IgG1, kappa, heterodimerized IgG1 (He Ab), mutation in one H chain only; also called He Ab) heavy 1: not shown heavy 2: not shown light: DIVMTQSPLSLPVTPGEPASISCQASESLVHSNRNTYLHWYLQKPGQSPQLLIYKVSNRFSGVPDRFSGSGSGTDFTLKISRVEAEDVGVYYCSQNTHVPPTFGQGTKVEIERTVAAPSVFIFPPSDEQLKSGTASVVCLLNNFYPREAKVQWKVDNALQSGNSQESVTEQDSKDSTYSLSSTLTLSKADYEKHKVYACEVTHQGLSSPVTKSFNRGEC | 103 | 104 | 107 | 108 | 90.9
2 | GpH7-A5/GpH7-B3 variant T335_03V/GpL16-k0 (antibody, human IgG1, kappa, heterodimerized IgG1 (He Ab), mutation in one H chain only; also called He Ab) heavy 1: not shown heavy 2: not shown light: DIVMTQSPLSLPVTPGEPASISCQASESLVHSNRNTYLHWYLQKPGQSPQLLIYKVSNRFSGVPDRFSGSGSGTDFTLKISRVEAEDVGVYYCSQNTHVPPTFGQGTKVEIERTVAAPSVFIFPPSDEQLKSGTASVVCLLNNFYPREAKVQWKVDNALQSGNSQESVTEQDSKDSTYSLSSTLTLSKADYEKHKVYACEVTHQGLSSPVTKSFNRGEC | 109 | 107 | 108 | 112 | 96.3
3 | GpH7-A5/GpH7-B3 variant T335_08L/GpL16-k0 (antibody, human IgG1, kappa, heterodimerized IgG1 (He Ab), mutation in one H chain only; also called He Ab) heavy 1: not shown heavy 2: not shown light: DIVMTQSPLSLPVTPGEPASISCQASESLVHSNRNTYLHWYLQKPGQSPQLLIYKVSNRFSGVPDRFSGSGSGTDFTLKISRVEAEDVGVYYCSQNTHVPPTFGQGTKVEIERTVAAPSVFIFPPSDEQLKSGTASVVCLLNNFYPREAKVQWKVDNALQSGNSQESVTEQDSKDSTYSLSSTLTLSKADYEKHKVYACEVTHQGLSSPVTKSFNRGEC | 114 | 109 | 118 | 114 | 97.8
4 | GpH7-A5/GpH7-B3 variant T335_04F/GpL16-k0 (antibody, human IgG1, kappa, heterodimerized IgG1 (He Ab), mutation in one H chain only; also called He Ab) heavy 1: not shown heavy 2: not shown light: DIVMTQSPLSLPVTPGEPASISCQASESLVHSNRNTYLHWYLQKPGQSPQLLIYKVSNRFSGVPDRFSGSGSGTDFTLKISRVEAEDVGVYYCSQNTHVPPTFGQGTKVEIERTVAAPSVFIFPPSDEQLKSGTASVVCLLNNFYPREAKVQWKVDNALQSGNSQESVTEQDSKDSTYSLSSTLTLSKADYEKHKVYACEVTHQGLSSPVTKSFNRGEC | 112 | 107 | 108 | 113 | 91.7
5 | GpH7-A5/GpH7-B3 variant T335_07I/GpL16-k0 (antibody, human IgG1, kappa, heterodimerized IgG1 (He Ab), mutation in one H chain only; also called He Ab) heavy 1: not shown heavy 2: not shown light: DIVMTQSPLSLPVTPGEPASISCQASESLVHSNRNTYLHWYLQKPGQSPQLLIYKVSNRFSGVPDRFSGSGSGTDFTLKISRVEAEDVGVYYCSQNTHVPPTFGQGTKVEIERTVAAPSVFIFPPSDEQLKSGTASVVCLLNNFYPREAKVQWKVDNALQSGNSQESVTEQDSKDSTYSLSSTLTLSKADYEKHKVYACEVTHQGLSSPVTKSFNRGEC | 116 | 112 | 113 | 115 | 102

Continued, values first:

Row | He/Con 2b [1] [%] | He/Con 2aH [2] [%] | He/Con 1a [3] [%] | He/Con 2aR [4] [%] | He/Con 3a [5] [%] | Binder
6 | 109 | 106 | 110 | 110 | 97 | GpH7-A5/GpH7-B3 variant T335_06M/GpL16-k0 (antibody, human IgG1, kappa, heterodimerized IgG1 (He Ab), mutation in one H chain only; also called He Ab) heavy 1: not shown heavy 2: not shown light: DIVMTQSPLSLPVTPGEPASISCQASESLVHSNRNTYLHWYLQKPGQSPQLLIYKVSNRFSGVPDRFSGSGSGTDFTLKISRVEAEDVGVYYCSQNTHVPPTFGQGTKVEIERTVAAPSVFIFPPSDEQLKSGTASVVCLLNNFYPREAKVQWKVDNALQSGNSQESVTEQDSKDSTYSLSSTLTLSKADYEKHKVYACEVTHQGLSSPVTKSFNRGEC
7 | 109 | 112 | 110 | 109 | 100 | GpH7-A5/GpH7-B3 variant T335_05P/GpL16-k0 (antibody, human IgG1, kappa, heterodimerized IgG1 (He Ab), mutation in one H chain only; also called He Ab) heavy 1: not shown heavy 2: not shown light: DIVMTQSPLSLPVTPGEPASISCQASESLVHSNRNTYLHWYLQKPGQSPQLLIYKVSNRFSGVPDRFSGSGSGTDFTLKISRVEAEDVGVYYCSQNTHVPPTFGQGTKVEIERTVAAPSVFIFPPSDEQLKSGTASVVCLLNNFYPREAKVQWKVDNALQSGNSQESVTEQDSKDSTYSLSSTLTLSKADYEKHKVYACEVTHQGLSSPVTKSFNRGEC
